From the supplement of paper PMC9112550, “Optimization of the antimicrobial peptide Bac7 by deep mutational scanning” (BMC Biology, 2022) come the findings set out here.

The data set deals with Escherichia coli TOP10. Description: shrunken log2 fold change of peptide-encoding DNA abundance (4.5 h post-induction vs induction); higher = less antimicrobial activity (less host growth inhibition). To be noted: time post-induction: 4.5 h; library: site-saturation at positions 5, 18, 19, 20.
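Further: peptides expressed intracellularly from a pBAD plasmid library in pooled LB shake-flask culture, induced with 0.3% L-arabinose, DNA abundance read by NGS, three biological replicates, DESeq2 with apeglm shrinkage.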

With RRIRARPPRLPRPRPRPAWRPRP, the “shrunken log2 fold change” value came out at 0.649.

Turning to RRIRNRPPRLPRPRPRPNSGPRP, the “shrunken log2 fold change” value was -0.0638. The result for RRIRWRPPRLPRPRPRPSMGPRP reads 0.033. The result for RRIRDRPPRLPRPRPRPNPVPRP reads -0.41; that for RRIRCRPPRLPRPRPRPAMWPRP, 0.295; that for RRIRQRPPRLPRPRPRPKMIPRP, -0.231. The result for RRIRRRPPRLPRPRPRPSIQPRP reads -0.0217; that for RRIRRRPPRLPRPRPRPSGKPRP, 0.845. RRIRLRPPRLPRPRPRPDVSPRP: the “shrunken log2 fold change” value worked out at 0.0432.

For the sequence RRIRCRPPRLPRPRPRPIYPPRP, the “shrunken log2 fold change” value is -0.386. In the case of RRIRNRPPRLPRPRPRPYICPRP it was -0.0343.

Take RRIRQRPPRLPRPRPRPMEIPRP: the “shrunken log2 fold change” value is -0.0109. On to RRIRARPPRLPRPRPRPSARPRP, for which the “shrunken log2 fold change” value is 0.479. Regarding RRIRFRPPRLPRPRPRPGMDPRP, the “shrunken log2 fold change” value is -0.25. On to RRIRYRPPRLPRPRPRPTENPRP, for which the “shrunken log2 fold change” value is -0.239.

Take RRIRLRPPRLPRPRPRPMRRPRP: the “shrunken log2 fold change” value came to 0.412. In the case of RRIRLRPPRLPRPRPRPCCTPRP it was -0.0665; in that of RRIRRRPPRLPRPRPRPGQWPRP, 0.312; in that of RRIRIRPPRLPRPRPRPNADPRP, -0.322.

On to RRIRERPPRLPRPRPRPFISPRP, for which the “shrunken log2 fold change” value was -0.0623. In the case of RRIRTRPPRLPRPRPRPWGDPRP it was -0.273.

Regarding RRIRYRPPRLPRPRPRPQHGPRP, the “shrunken log2 fold change” value is -0.0664. In the case of RRIRLRPPRLPRPRPRPYFEPRP, the “shrunken log2 fold change” value was -0.453.

For the sequence RRIRERPPRLPRPRPRPVRPPRP, the “shrunken log2 fold change” value is 0.849. The result for RRIRIRPPRLPRPRPRPIEWPRP reads -0.123; that for RRIRSRPPRLPRPRPRPFANPRP, -0.0026. For RRIRSRPPRLPRPRPRPSTMPRP, the “shrunken log2 fold change” value was -0.455. The result for RRIRYRPPRLPRPRPRPKLPPRP reads 0.108; that for RRIRPRPPRLPRPRPRPEHDPRP, -0.00589; that for RRIRWRPPRLPRPRPRPMEAPRP, 0.0987. In the case of RRIRFRPPRLPRPRPRPVEVPRP it was -1.6; in that of RRIRGRPPRLPRPRPRPPVLPRP, 0.25. In the case of RRIRMRPPRLPRPRPRPTMQPRP it was 0.566. On to RRIRVRPPRLPRPRPRPCIQPRP, for which the “shrunken log2 fold change” value was -0.00992.

Turning to RRIRMRPPRLPRPRPRPSDYPRP, the “shrunken log2 fold change” value was determined as 0.0806.

Take RRIRKRPPRLPRPRPRPVHIPRP: the “shrunken log2 fold change” value is -0.021. RRIRYRPPRLPRPRPRPWSPPRP: the “shrunken log2 fold change” value was -0.848. The result for RRIRKRPPRLPRPRPRPDVIPRP reads 0.153; that for RRIRQRPPRLPRPRPRPLARPRP, 0.26. On to RRIRWRPPRLPRPRPRPGKDPRP, for which the “shrunken log2 fold change” value is -0.222. In the case of RRIRNRPPRLPRPRPRPTYKPRP it was -0.196; in that of RRIRQRPPRLPRPRPRPQWKPRP, -0.0075. In the case of RRIRIRPPRLPRPRPRPFQPPRP it was -0.407; in that of RRIRGRPPRLPRPRPRPDMPPRP, 0.168.

On to RRIRYRPPRLPRPRPRPCANPRP, for which the “shrunken log2 fold change” value was -0.0013.

As to RRIRYRPPRLPRPRPRPHCKPRP, the “shrunken log2 fold change” value is -0.11. The result for RRIRHRPPRLPRPRPRPLAKPRP reads 0.107. Regarding RRIRYRPPRLPRPRPRPEKNPRP, the “shrunken log2 fold change” value was -0.526. The result for RRIRNRPPRLPRPRPRPWLSPRP reads 0.0232. In the case of RRIRGRPPRLPRPRPRPSACPRP it was 1.5. The result for RRIRLRPPRLPRPRPRPFTTPRP reads 0.0966; that for RRIRCRPPRLPRPRPRPTKPPRP, 0.531; that for RRIRIRPPRLPRPRPRPCCFPRP, -0.725. As for RRIRFRPPRLPRPRPRPCHIPRP, the “shrunken log2 fold change” value was -0.11. In the case of RRIRARPPRLPRPRPRPLREPRP it was 1.16; in that of RRIRARPPRLPRPRPRPPNHPRP, 0.305; in that of RRIRLRPPRLPRPRPRPPSQPRP, 0.756. The result for RRIRERPPRLPRPRPRPMSTPRP reads -0.516; that for RRIRGRPPRLPRPRPRPYFMPRP, -0.389; that for RRIRKRPPRLPRPRPRPRSIPRP, 0.176. The result for RRIRMRPPRLPRPRPRPQVSPRP reads 0.399; that for RRIRIRPPRLPRPRPRPENCPRP, -0.00941; that for RRIRTRPPRLPRPRPRPDQWPRP, -0.00805. Consider RRIRNRPPRLPRPRPRPIQGPRP, for which the “shrunken log2 fold change” value was -0.105. In the case of RRIRYRPPRLPRPRPRPIGKPRP it was 0.0104. In the case of RRIRLRPPRLPRPRPRPPDCPRP it was 0.0366; in that of RRIRERPPRLPRPRPRPSDRPRP, -0.165. In the case of RRIRQRPPRLPRPRPRPLTGPRP it was -0.0104; in that of RRIRPRPPRLPRPRPRPCSRPRP, 0.0759. Turning to RRIRMRPPRLPRPRPRPRSKPRP, the “shrunken log2 fold change” value came out at 0.907. The result for RRIRRRPPRLPRPRPRPRELPRP reads 0.887. In the case of RRIRIRPPRLPRPRPRPARQPRP it was -0.0037; in that of RRIRPRPPRLPRPRPRPATPPRP, 0.216; in that of RRIRLRPPRLPRPRPRPEMGPRP, 0.144.

Consider RRIRKRPPRLPRPRPRPFSDPRP, for which the “shrunken log2 fold change” value is 0.0546.

For the sequence RRIRTRPPRLPRPRPRPGIEPRP, the “shrunken log2 fold change” value was -0.278. In the case of RRIRQRPPRLPRPRPRPGMLPRP it was 0.105; in that of RRIRHRPPRLPRPRPRPPSGPRP, 0.771; in that of RRIRQRPPRLPRPRPRPPPDPRP, 0.701. The result for RRIRERPPRLPRPRPRPARHPRP reads -0.00285; that for RRIRMRPPRLPRPRPRPGCTPRP, 0.245. In the case of RRIRWRPPRLPRPRPRPRPLPRP it was 0.158; in that of RRIRARPPRLPRPRPRPEFRPRP, 0.327; in that of RRIRYRPPRLPRPRPRPYEAPRP, -0.336. On to RRIRFRPPRLPRPRPRPGNGPRP, for which the “shrunken log2 fold change” value was 0.228. In the case of RRIRNRPPRLPRPRPRPCHRPRP it was -0.139; in that of RRIRQRPPRLPRPRPRPARRPRP, 0.486.

Consider RRIRTRPPRLPRPRPRPLFHPRP, for which the “shrunken log2 fold change” value is -0.193. The result for RRIRFRPPRLPRPRPRPSICPRP reads -0.636; that for RRIRGRPPRLPRPRPRPHLPPRP, 0.0386; that for RRIRDRPPRLPRPRPRPYPDPRP, -0.27. In the case of RRIRIRPPRLPRPRPRPRKPPRP, the “shrunken log2 fold change” value is -0.0479. In the case of RRIRYRPPRLPRPRPRPTGNPRP it was -0.858. As for RRIRMRPPRLPRPRPRPQKLPRP, the “shrunken log2 fold change” value came out at 0.0146. In the case of RRIRERPPRLPRPRPRPWLHPRP it was -0.262; in that of RRIRFRPPRLPRPRPRPTLNPRP, -0.254. In the case of RRIRHRPPRLPRPRPRPYDEPRP it was -0.0392. In the case of RRIRRRPPRLPRPRPRPRIEPRP it was 0.261; in that of RRIRDRPPRLPRPRPRPHRPPRP, 0.0369; in that of RRIRARPPRLPRPRPRPISCPRP, 0.0406. Turning to RRIRRRPPRLPRPRPRPNWQPRP, the “shrunken log2 fold change” value worked out at 0.00842. In the case of RRIRPRPPRLPRPRPRPTIFPRP it was 0.0842; in that of RRIRTRPPRLPRPRPRPDKYPRP, -0.147; in that of RRIRHRPPRLPRPRPRPIVNPRP, 0.114. In the case of RRIRIRPPRLPRPRPRPIPHPRP it was -0.297. In the case of RRIRLRPPRLPRPRPRPCEVPRP it was 0.0632. As to RRIRCRPPRLPRPRPRPHFTPRP, the “shrunken log2 fold change” value was -0.677. In the case of RRIRYRPPRLPRPRPRPKKVPRP it was -0.141; in that of RRIRCRPPRLPRPRPRPNDFPRP, -0.241. In the case of RRIRKRPPRLPRPRPRPDCYPRP it was 0.012; in that of RRIRARPPRLPRPRPRPRCTPRP, 0.392; in that of RRIRLRPPRLPRPRPRPMLHPRP, -0.34. In the case of RRIRHRPPRLPRPRPRPHPSPRP it was 0.0305; in that of RRIRIRPPRLPRPRPRPRKHPRP, -0.252. On to RRIRERPPRLPRPRPRPEENPRP, for which the “shrunken log2 fold change” value was 0.127.

Turning to RRIRFRPPRLPRPRPRPQEWPRP, the “shrunken log2 fold change” value is -0.149.

As for RRIRSRPPRLPRPRPRPEAMPRP, the “shrunken log2 fold change” value was determined as 1.09. The result for RRIRQRPPRLPRPRPRPRSMPRP reads 0.33. The result for RRIRLRPPRLPRPRPRPNWIPRP reads -0.583. As to RRIRARPPRLPRPRPRPWLEPRP, the “shrunken log2 fold change” value is -0.0344. On to RRIRCRPPRLPRPRPRPHAKPRP, for which the “shrunken log2 fold change” value was -0.446.

Regarding RRIRYRPPRLPRPRPRPPTRPRP, the “shrunken log2 fold change” value stood at 0.277.

For RRIRRRPPRLPRPRPRPILIPRP, the “shrunken log2 fold change” value was 0.118. In the case of RRIRIRPPRLPRPRPRPTGNPRP, the “shrunken log2 fold change” value is -0.626. Take RRIRRRPPRLPRPRPRPWGFPRP: the “shrunken log2 fold change” value was 0.315.
